The test system of assay [1] is human APP and β-secretase co-expressed in HEK 293T cells. Briefly: HEK 293T cells co-expressing APP and β-secretase (BACE1): Aβ ELISA and β-CTF Western blot. Type of assay: cell-based. The protocol: The experiment was performed according to the standard procedure in the ELISA analysis kit of Invitrogen Company. • a) The target protein was expressed in HEK 293T cell line. Cells were subcultured one day before transfection, and transfection was performed when the degree of cell adhesion reached 70%-80%. The transfection reagent was lipofectamine2000 (ThermoFisher). • b) 4-6 hours post transfection, medium were replaced with fresh cell culture medium. • c) 36-48 hours post transfection, the cell culture medium was collected, and then the ELISA process was performed or the cell culture medium was frozen in a −80° C. refrigerator. • d) 50 μl of standard samples and experimental samples were added to each well of the 96-well plate. • e) 50 μl of human-derived Aβ40 or Aβ42 or mouse-derived Aβ40 detection antibody was added to each well of the 96-well plate. • f) The above samples were shaken gently and placed at room temperature for 3 hours. • g) The liquid in the well were removed, and the plate was washed 4 times with 1× wash buffer. • h) 100 μl of the buffer containing 1× anti-Rabbit IgG HRP was added. • i) The plate was shaken gently and placed at room temperature for […]. • j) The liquid in the well were removed, and the well was washed 4 times with 1× wash buffer. • k) 100 μl of Stabilized Chromogen was added to each well, and the plate was placed in the dark for 30 minutes at room temperature. • l) 100 μl of Stop Solution was added to each well. • m) The absorbance at 450 nm was measured with a microplate reader. 2.4 qRT-PCR
(§1) 48 hours after transfection of HEK 293T cells and N2A cells, or 4.5 days after lentivirus infection of neurons, media and lysates were collected. Aβ40 and Aβ42 in the culture medium and cell lysates were detected by an Aβ ELISA kit as indicated in the protocol. (Invitrogen Technology; KHB3481 for human Aβ40, KHB3441 for human Aβ42 and KMB3481 for mouse Aβ40).
(§2) Data were analyzed by GraphPad Prism software (v6) using unpaired, paired, or one-sample t-tests. Aβ40 and Aβ42 levels were normalized to the corresponding GFP controls. α-CTF levels were normalized to FL-APP and corresponding GFP controls. All data are represented as mean±SEM. Statistical significance was defined as p<0.05. One, two, three and four stars (*) in the graph indicate p-values <0.05, <0.01, <0.001 and <0.0001, respectively.

Assay [2] concerns APP co-expressed in mouse neuron cell line N2A. Briefly: α-CTF produced by APP co-expressed in N2A cells (Western blot). Type of assay: cell-based. The protocol:
(§3) Plasmids were transfected in HEK 293T or N2A cells for 36-48 hours and then lysed in cell lysis buffer [10% 1M tris-HCl (pH=6.8), 4% SDS, 20% glycerol, 0.01% bromophenol blue]. Lysates were shaken at room temperature for 10 min, then boiled for 10 min, and centrifuged at 12,000×g for 10 min. Proteins were run on 8% or 12% Tris-glycine SDS-PAGE and transferred to PVDF membranes (Life Technologies). Samples were incubated overnight at 4° C. with primary antibody diluted in 5% BSA buffer (in 1×TBST). After washing 3 times with 1×TBST, they were incubated with secondary antibody diluted in 5% BSA buffer (in 1×TBST) for 2 hours at room temperature. Finally, after washing 3 times with 1×TBST, the signal was detected by ECL Western blotting substrate (Solarbio, PE0010).
as §2
(In western blotting, separated proteins are transferred to a membrane and probed.)

Assay [3] has as its system human pluripotent stem cell-induced neurons. Briefly: Endogenous Aβ40 in human pluripotent stem cell-induced neurons (lentivirus, ELISA). Type of assay: cell-based. Here is the method:
• a) Construction of lentivirus expression plasmids, lentivirus-GFP and lentivirus-ApoE CT, which can be specifically expressed in neurons. • b) The lentivirus vectors were cotransfected with coat protein vectors (PSPAX2 and PMD2G) in HEK 293T cell line. Cells were subcultured one day before transfection, and transfection was performed when the degree of cell adhesion reached 70%-80%. The transfection reagent was Polyjet (SignaGen). • c) 36-48 hours after the transfection, the cell culture was collected and filtered through a 0.22 μm filter membrane. • d) The filtered cell culture solution was ultracentrifuged. Centrifuged at 20000 rpm, 4° C. for 2 hours and 5 minutes. • e) After centrifugation, the supernatant was removed, and the precipitation of every three precipitates of 10 cm cell culture medium was resuspended with 50 μl of PBS. • f) The resuspended virus was subpackaged and stored in a −80° C. refrigerator for subsequent experiments.
as §1

The next assay concerns N100 (NOTCH fragment). Briefly: γ-cleavage of NOTCH fragment N100 in HEK 293T cells co-expressing γ-secretase (Western blot). Format: cell-based. As to conditions: N100-V5 and γ-secretase, PF03084014 at 1 uM. Here is the method:
as §3

For another assay, the system named is APP mutants. Briefly: α-CTF produced by APP variants with AD-related mutations co-expressed in HEK 293T cells. Type of assay: cell-based, human. The protocol: as §3
Another assay concerns APP. Briefly: Cell surface expression of APP in HEK 293T cells (surface biotinylation, Western blot). Type of assay: cell-based. Here is the method:
FIGS. 29A-29K show ApoE CT is still able to regulate APP metabolism when α- or β-secretase is inhibited. […] N=9. FIGS. 29C-29D show ELISA assay and statistical analysis of Western blot assay for the effects of ApoE CT on Aβ production from co-expressed APP and BACE1 in HEK 293T cells treated with 1 μM ADAM10 inhibitor GI254023X; control group received no inhibitor treatment. FIG. 29C: Aβ40 in cell culture medium; FIG. 29D: Aβ40 in cell lysates. N=6. FIGS. 29E-29F show Western blot detection and statistical analysis of the effects of ApoE CT on the production of α-CTF from co-expressed APP in HEK 293T cells treated with 5 μM BACE1 inhibitor AZD3839; the control group received no inhibitor treatment. N=10. FIGS. 29G-29H show Western blot detection and statistical analysis of α-CTF produced by co-expressing APPM596V and GFP or ApoE CT in HEK 293T cells, respectively. N=7. […] Cell surface proteins of HEK 293T cells expressing GFP(−) and ApoE CT(+) were labeled with sulfo-N-hydroxysuccinimide-biotin and isolated with streptavidin-coupled agarose beads.

The test system of the next assay is mouse APP (mAPP). Briefly: α-CTF produced by mouse APP (mAPP) expressed in HEK 293T cells. Format: cell-based. As to conditions: HEK 293T cells transiently expressing mAPP. Here is the method:
as §3

A further assay concerns APPSW. Briefly: Aβ40 produced by Swedish APP mutant (APPSW) in HEK 293T cells (ELISA). Format: cell-based, human. Particulars: HEK 293T cells expressing APPSW. Here is the method: as §1
(In general: An ELISA detects its analyte on a solid surface through an enzyme-linked reagent.)

B1: ApoE CT: C-terminal fragment of ApoE, positions 216-299 of SEQ ID NO: 12; SEQ ID NO: 33 (protein)
chain: ARMEEMGSRTRDRLDEVKEQVAEVRAKLEEQAQQIRLQAEAFQARLKSWFEPLVEDMQRQWAGLVEKVQAAVGTSAAPVPSDNH
Regarding B1, the “Aβ40 in the presence of GI254023X” value in assay [1] (APP and BACE1, 1 μM GI254023X) is given as “decrease Aβ40”. For the same molecule, the β-CTF levels entry in assay [1] (APP and BACE1, Western blot) is on record as “did not alter β-CTF levels”. Further, the “production of Aβ40” value in assay [1] (APP and β-secretase co-expressed, ELISA, vs GFP control) is on record as “decreased Aβ40”. Also, in assay [1] (APP, BACE1), the “Aβ40 in cell lysates, decreased by” value is listed as “about 42%”; the “Aβ40 secreted into the cell culture medium, reduced by” value is recorded as “about 75%”; the “Aβ42, reduced by” value is reported as “about 74%”; the “ratio of Aβ42/Aβ40” value was “remains unchanged”. For the same molecule, in assay [1] (ELISA), the Aβ40 is recorded as 25 % of GFP control and the Aβ42 entry was “about 26 % of GFP control”. The “level of α-CTF compared with ApoE2” value in assay [2] is “significantly increases the level of α-CTF”. The “α-CTF produced by co-expressed APP” value in assay [2] (Western blot, vs GFP control) is recorded as “significantly increases α-CTF”. In assay [3] (hiPSC-induced neurons, lentiviral infection), the “reduction in Aβ40 production” value is “approximately 46%”. Also, in assay [3] (human neurons from pluripotent stem cell line, lentivirus), the “endogenous Aβ40” value is on record as “also reduces endogenous Aβ40”. Further, the “endogenous production of Aβ40” value in assay [3] (human pluripotent stem cell-induced neurons) is on record as “about 54 % of controls”. Further, the “γ-secretase-dependent reduction of N100” value in the assay with N100 (NOTCH fragment) is “failed to suppress”. Besides, in the assay with APP mutants (APP A673T), the “effect on α-CTF levels, Icelandic mutation” value was “no difference”. The “ability to increase α-CTF levels compared to WT APP” value in the assay on APP mutants (APP fAD mutations near γ cleavage site (T714I, V717F, L723P)) was “significantly reduced”. The “α-CTF produced by all tested APP mutants” value in the assay on APP mutants (HEK 293T cells) is given as “increased α-CTF”. For the same molecule, the “α-CTF produced by APPM596V” value in the assay on APP mutants (HEK 293T cells, APP mutation that cannot conduct β-cleavage) is reported as “able to increase α-CTF”. Further, the “effect on α-CTF levels, WT APP vs APP mutants” value in the assay on APP mutants (fAD mutations near β- or α-cleavage site (KM670/671NL, E693K, E693A)) is recorded as “no statistically significant difference”. Also, the “APP expression on the cell surface” value with APP is listed as “did not alter APP expression on the cell surface”. Moreover, the “α-CTF levels from mouse APP” value with mouse APP (mAPP) is “increases α-CTF levels”. Besides, in the assay with APPSW, the “Aβ40 in cell lysates, reduced by” value was “approximately 43%” and the “Aβ40 in the medium, reduced by” value is “approximately 76%”.
